The labels stand for the following.
B1: L3.PY/L1.AH/H3.TAQ (antibody, V domains shown)
VH: EVQLLESGGGLVQPGGSLRLSCAASGFTFGSYAMTWVRQAPGKGLEWVSAISGSGGNTFYADSVKGRFTISRDNSKNTLYLQMNSLRAEDTAVYYCTRVSPIAAQMDYWGQGTLVTVSS
VL: EIVLTQSPGTLSLSPGERATLSCRASQSVSAHYLAWYQQKPGQAPRLLIYGASSRATGIPDRFSGSGSGTDFTLTISRLEPEDFAVYYCQHYPYPPSFTFGQGTKVEIK
notes: IgG
B2: L3.PY/L1.FF/H2.DY (antibody, V domains shown)
VH: B1 VH with S52D, G53Y, T97A, A104S, Q105G
VL: B1 VL with A31S, H32F, Y33F
notes: IgG
B3: L3.PY/L1.FF/H3.TAQ (antibody, V domains shown)
VH: B1 VH
VL: B1 VL with A31S, H32F, Y33F
notes: IgG
B4: L3.PY/L1.FF/H2.QL (antibody, V domains shown)
VH: B1 VH with S63Q, V64L, T97A, A104S, Q105G
VL: B1 VL with A31S, H32F, Y33F
notes: IgG
B5: L3.PY/L1.FF/H2.LT (antibody, V domains shown)
VH: B1 VH with G53L, S54T, T97A, A104S, Q105G
VL: B1 VL with A31S, H32F, Y33F
notes: IgG
B6: L3.PY/L1.FF/H3.YA (antibody, V domains shown)
VH: B1 VH with T97A, A103Y, Q105G
VL: B1 VL with A31S, H32F, Y33F
notes: IgG
B7: L3.PY/L1.FF/H3.AE (antibody, V domains shown)
VH: B1 VH with T97A, Q105E
VL: B1 VL with A31S, H32F, Y33F
notes: IgG
B8: L3.PY/L1.FF/H3.AQ (antibody, V domains shown)
VH: B1 VH with T97A
VL: B1 VL with A31S, H32F, Y33F
notes: IgG
B9: L3.PY/L1.FF/H2.YQ (antibody, V domains shown)
VH: B1 VH with G53Y, S54Q, T97A, A104S, Q105G
VL: B1 VL with A31S, H32F, Y33F
notes: IgG
B10: L3.PY/L1.FF/H2.QR (antibody, V domains shown)
VH: B1 VH with S63Q, V64R, T97A, A104S, Q105G
VL: B1 VL with A31S, H32F, Y33F
notes: IgG
B11: L3.PY/L1.FF/H2.HA (antibody, V domains shown)
VH: B1 VH with G53H, S54A, T97A, A104S, Q105G
VL: B1 VL with A31S, H32F, Y33F
notes: IgG

Consider eleven molecules from patent US20160297884A1 (Pfizer, published 2016).

Broadly, the Kd is the equilibrium constant for the complex coming apart. The low end stands for higher affinity, the high end for lower affinity. As a reminder, the koff is the rate constant with which the complex falls apart. Read a low koff as a long-lived complex. The term kon denotes the second-order rate constant of association. Low values mean slow association, high ones fast association.

Where a chain is given by its changes, count along the chain named.

For this experiment, the target named is T1, Human BCMA (human, UniProt Q02223 1-54, limits assumed).
T1 construct: Soluble analyte in SPR; construct not described; also called huBCMA; B-cell maturation antigen
T1 sequence (looked up): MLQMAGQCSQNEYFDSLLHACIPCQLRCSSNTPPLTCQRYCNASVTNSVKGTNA
The experiment can be described thus: SPR, IgG immobilised, 37 C. The protocol:
All experiments were performed on a Bio-Rad Proteon XPR36 surface Plasmon resonance biosensor (Bio-Rad, Hercules, Calif.). […] The analysis temperature for the immobilization was 25° C. and the running buffer was HBS-T+(10 mM HEPES, 150 mM NaCl, 0.05% Tween-20, pH 7.4). Channels were activated in the analyte (horizontal) direction by injecting a mixture of 1 mM ECD and 0.25 mM NHS for 3 minutes at a flow rate of 30 μL/min. IgGs were immobilized on the activated spots by injecting them in the ligand (vertical) direction at 20 μg/mL in 10 mM Acetate pH 4.5 buffer for 1.5 minutes at […]. The activated surfaces were blocked by injecting 1M ethanolamine, pH 8.5 in the analyte direction for 3 minutes at 30 μL/min.
The analysis temperature for the BCMA binding analysis was 37° C. or 25° C. in a running buffer of HBS-T+, supplemented with 1 mg/mL BSA. A kinetic titration method was employed for the interaction analysis as described in Abdiche, et al. Human BCMA (huBCMA) or cynomolgus monkey BCMA (cyBCMA) analyte was injected in the analyte direction using a series of injections from low to high concentration. The concentrations used were 0.08 nM, 0.4 nM, 2 nM, 10 nM and 50 nM (a 5-membered series, with a 5-fold dilution factor and top concentration of 50 nM). The association time for a given analyte dilution was two minutes. Immediately after the 50 nM BCMA injection, dissociation was monitored for 2 hours.
The sensorgrams were double-referenced and fit to a 1:1 Langmuir with mass transport kinetic titration model in BIAevaluation Software version 4.1.1 (GE Lifesciences, Piscataway, N.J.).
(In general: In SPR one partner is held on a chip, and binding of the other changes the refractive index at the surface.)
On to B1, for which the Kd amounted to 0.37 nM, the “T ½” value stood at 9.68 min, the koff came to 0.00119 s⁻¹ and the kon was 3.27e+06 M⁻¹ s⁻¹.
For B2 the same measures were 0.65 nM, 4.27 min, 0.00271 s⁻¹ and 4.14e+06 M⁻¹ s⁻¹.
B3: the Kd is 0.54 nM, the “T ½” value is 6.12 min, the koff stood at 0.00189 s⁻¹ and the kon is 3.52e+06 M⁻¹ s⁻¹.
As for B4, the affinity, expressed as Kd, was 0.4 nM; the “T ½” value is 8.28 min; the koff is 0.0014 s⁻¹; the on-rate constant (kon) is 3.48e+06 M⁻¹ s⁻¹.
As to B5, binding was put at a Kd of 0.51 nM, the “T ½” value was 6.92 min, the koff was found to be 0.00167 s⁻¹ and the on-rate (kon) was found to be 3.3e+06 M⁻¹ s⁻¹.
Regarding B6, binding was characterised by a dissociation constant (Kd) of 0.51 nM, the “T ½” value came to 6.41 min, the dissociation rate constant (koff) worked out at 0.0018 s⁻¹ and the kon was 3.5e+06 M⁻¹ s⁻¹.
For B7 the same measures were 0.69 nM, 4.39 min, 0.00263 s⁻¹ and 3.82e+06 M⁻¹ s⁻¹.
For B8, the Kd came to 0.46 nM, the “T ½” value stood at 7.51 min, the koff is 0.00154 s⁻¹ and the kon is 3.32e+06 M⁻¹ s⁻¹.
For the molecule B9, binding was put at a Kd of 0.46 nM, the “T ½” value is 7.61 min, the koff amounted to 0.00152 s⁻¹ and the kon came to 3.32e+06 M⁻¹ s⁻¹.
On to B10, for which binding was put at a Kd of 0.51 nM, the “T ½” value worked out at 6.54 min, the koff was 0.00177 s⁻¹ and the kon amounted to 3.47e+06 M⁻¹ s⁻¹.
As for B11, binding was put at a Kd of 0.63 nM, the “T ½” value was 5.29 min, the off-rate constant (koff) turned out to be 0.00219 s⁻¹ and the kon was 3.49e+06 M⁻¹ s⁻¹.
